Results: publication PMC4412080

Target: mouse anti-human CD4 IgG (BD Biosciences) (mouse)
Assay: ELISA; wells coated overnight at 4°C in PBS with mouse anti-human CD4 IgG (4 μg/mL) or with BSA; blocked with 3% BSA; phage (ID1-mZ 3 × 10^8 to 1 × 10^10 PFU/mL) in 0.1% Tween, 0.1% BSA in PBS for 1 h at r.t.; detected with HRP-conjugated anti-M13 antibody and TMB; mid-point of binding estimated; multivalent display; how the phage was prepared is not told

In the case of “ID1-mZ phage (M13KE-derived phage that displays the minimized Z-domain of protein A and a TEV recognition sequence inside pIII, in linker L1)”, the EC50 is reported as 0.6 pM.
